Measurements from publication PMC7005798 (2020).

Target: C3b (human, UniProt P01024 23-667; P01024 749-1663)
Experiment: SPR

Chain of C3b (P01024 23-667, chain 1 of 2): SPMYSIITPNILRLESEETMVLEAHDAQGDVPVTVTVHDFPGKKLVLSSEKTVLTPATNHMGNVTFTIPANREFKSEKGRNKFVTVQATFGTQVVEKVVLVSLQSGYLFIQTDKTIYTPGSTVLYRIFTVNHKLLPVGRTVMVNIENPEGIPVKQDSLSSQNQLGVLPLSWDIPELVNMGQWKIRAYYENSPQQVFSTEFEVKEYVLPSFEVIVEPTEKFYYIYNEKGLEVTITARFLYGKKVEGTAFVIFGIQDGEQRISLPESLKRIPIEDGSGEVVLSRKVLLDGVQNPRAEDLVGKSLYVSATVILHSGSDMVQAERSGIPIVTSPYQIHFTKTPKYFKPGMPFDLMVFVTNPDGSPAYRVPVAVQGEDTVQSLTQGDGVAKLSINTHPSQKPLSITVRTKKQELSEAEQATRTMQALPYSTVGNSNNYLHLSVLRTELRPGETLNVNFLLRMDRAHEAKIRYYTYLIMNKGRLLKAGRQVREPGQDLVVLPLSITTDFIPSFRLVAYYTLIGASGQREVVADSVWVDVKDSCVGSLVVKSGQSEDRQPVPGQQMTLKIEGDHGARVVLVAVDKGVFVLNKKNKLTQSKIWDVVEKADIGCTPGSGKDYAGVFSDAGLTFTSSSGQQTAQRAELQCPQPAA
Chain of C3b (P01024 749-1663, chain 2 of 2): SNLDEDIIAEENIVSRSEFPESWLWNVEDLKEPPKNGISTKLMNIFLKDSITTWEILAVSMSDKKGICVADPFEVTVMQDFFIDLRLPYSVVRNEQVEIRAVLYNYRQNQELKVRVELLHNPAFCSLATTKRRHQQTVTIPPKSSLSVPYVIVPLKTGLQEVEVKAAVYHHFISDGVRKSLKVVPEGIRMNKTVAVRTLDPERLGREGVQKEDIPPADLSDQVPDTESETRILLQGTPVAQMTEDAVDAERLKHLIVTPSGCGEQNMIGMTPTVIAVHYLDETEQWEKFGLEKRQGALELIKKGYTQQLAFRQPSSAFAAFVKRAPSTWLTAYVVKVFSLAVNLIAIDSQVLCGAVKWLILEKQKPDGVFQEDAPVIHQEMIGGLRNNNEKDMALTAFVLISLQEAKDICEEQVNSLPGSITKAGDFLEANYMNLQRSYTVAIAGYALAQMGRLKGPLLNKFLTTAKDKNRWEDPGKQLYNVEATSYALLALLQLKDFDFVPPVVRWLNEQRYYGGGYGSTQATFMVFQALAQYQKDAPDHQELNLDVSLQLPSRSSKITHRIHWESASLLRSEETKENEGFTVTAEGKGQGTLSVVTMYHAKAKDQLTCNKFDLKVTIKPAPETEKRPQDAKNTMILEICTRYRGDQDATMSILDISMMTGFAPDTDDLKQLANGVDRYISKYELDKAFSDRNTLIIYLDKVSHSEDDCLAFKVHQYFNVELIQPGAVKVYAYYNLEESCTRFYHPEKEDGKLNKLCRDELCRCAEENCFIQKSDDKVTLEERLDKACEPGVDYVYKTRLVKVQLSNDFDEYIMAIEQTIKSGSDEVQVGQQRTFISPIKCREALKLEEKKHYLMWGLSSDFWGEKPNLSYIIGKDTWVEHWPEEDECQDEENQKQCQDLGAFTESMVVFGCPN

Kd: 1100 nM
B1: Recombinant Factor H-Related Protein 4 (FHR-4), FHR-4B variant (natural protein)
chain: EVKPCDFPEIQHGGLYYKSLRRLYFPAAAGQSYSYYCDQNFVTPSGSYWDYIHCTQDGWSPTVPCLRTCSKSDIEIENGFISESSSIYILNKEIQYKCKPGYATADGNSSGSITCLQNGWSAQPICIKFCDMPVFENSRAKSNGMRFKLHDTLDYECYDGYEISYGNTTGSIVCGEDGWSHFPTCYNSSEKCGPPPPISNGDTTSFLLKVYVPQSRVEYQCQSYYELQGSNYVTCSNGEWSEPPRCIHPCIITEENMNKNNIQLKGKSDIKYYAKTGDTIEFMCKLGYNANTSVLSFQAVCREGIVEYPRCE
